# In patent US11266715B2, “C3A receptor agonists for use against ischemic brain injury, stroke, traumatic brain injury, spinal cord injury and neurodegenerative disorders” (priority 2016, dated 2022):
# Test: In vivo epifluorescent imaging of labelled C3a after intranasal administration
# Design: species or system mouse
# Method: C3a (Complement Technologies) was labelled with VivoTag XL 680 fluorescent tag (Perkin Elmer) and purified according to manufacturer's instructions. A minimum of 10 μg of labelled C3a (0.4 mg/kg of body weight) was determined in a pilot experiment to be necessary for reliable detection of the fluorescent signal in live animals due to its significant attenuation by skull bones. Mice received 20 μl of PBS or 65 μM C3a-VivoTag (0.48 mg/kg of body weight) intranasally as described above. One and three hours later, mice were anesthetized with 2% isoflurane and imaged in the IVIS Lumina III Bio-imaging platform (Caliper Technologies). After imaging, mice were deeply anesthetized with isoflurane and killed by cervical dislocation for ex vivo imaging. Brains were quickly dissected from the skull and imaged using the same fluorescent filter sets. All mice and brains were imaged simultaneously with the PBS-treated control (acting as the tissue autofluorescence reference) placed in the middle, to minimize the potential confound of weaker illumination toward the sides of the observation field. Acquired images were processed and analysed using Living Image software (Caliper Technologies). Epifluorescent signal intensities are presented as radiant efficiency [(photons/sec/cm^2/sr)/(μW/cm^2)] after subtraction of the residual tissue autofluorescence signal defined by the PBS control.
substance,measurement,setting,value
fluorescently labelled C3a: C3a (Complement Technologies) labelled with VivoTag XL 680 fluorescent tag,time C3a is detectable in brain tissue after intranasal administration,"20 μl of 65 μM C3a-VivoTag (0.48 mg/kg) intranasal, imaged at 1 and 3 h, live and ex vivo",at least 3 hours
same,delivery to the brain by intranasal administration,epifluorescent imaging in live animals,can be delivered to the mouse brain through intranasal administration
